Source: paper PMC11506057, “Identification of Podoplanin Aptamers by SELEX for Protein Detection and Inhibition of Platelet Aggregation Stimulated by C-Type Lectin-like Receptor 2”

T1: podoplanin (PDPN), recombinant PDPN-His-Fc (UniProt Q86YL7 23-131)
T1 sequence: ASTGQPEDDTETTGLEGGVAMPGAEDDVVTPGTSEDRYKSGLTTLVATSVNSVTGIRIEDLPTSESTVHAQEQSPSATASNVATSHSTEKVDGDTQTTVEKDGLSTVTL

B1: A77 (structured_DNA)
DNA: ATCCAGAGTGACGCAGCATGGGGGGAGAGTGTGGTCTGGCTTGGTGGGGTCTGGGGGCTGGACACGGTGGCTTAGT
B2: A289 (structured_DNA)
DNA: ATCCAGAGTGACGCAGCACGGGTTTGGCGCCGGGCCTGGCGGGTGTAGCGTTTTTGGGTGGACACGGTGGCTTAGT
B3: A1498 (structured_DNA)
DNA: ATCCAGAGTGACGCAGCATGCAGGGTTTGGCTTCGGGCCTGGCGGAGAGAGCGTGAGGTGGACACGGTGGCTTAGT
B4: A6 (structured_DNA)
DNA: ATCCAGAGTGACGCAGCACACCGAGGGGACTGCTCGGGATTGCGGATGAGGTAGCAAGTGGACACGGTGGCTTAGT
B5: A1 (structured_DNA)
DNA: ATCCAGAGTGACGCAGCATCACTAGTGCGCCAGGGGGACTGCTCGGGATTGCGGATACTGGACACGGTGGCTTAGT
B6: A5 (structured_DNA)
DNA: ATCCAGAGTGACGCAGCATGCCAAAGGGTCTGCTCGGGATTGCGGAGAGGGCTTGGGGTGGACACGGTGGCTTAGT

Target: T1, podoplanin (PDPN), recombinant …
Assay: BLI; BLI and dot blot: binding buffer B, 1x PBS, 5 mM MgCl2, 0.1% BSA, 0.01% yeast tRNA (BLI baseline in buffer A: 1x PBS, 5 mM MgCl2, 2 mM CaCl2, 1 mg/mL BSA, 0.1 mg/mL salmon sperm DNA); temperature and pH not given; flow cytometry at 4 C
Settings: protein: commercial, tags: His
[1] = chain copies: 2, label: biotin, parallel G-quadruplex (CD), stem-loop predicted
[2] = chain copies: 2, label: biotin, antiparallel G-quadruplex or B-DNA (CD)

Binder	Kd [1] [pM]	Kd [2] [pM]	also measured
B1	1700	–	–
B2	–	500	–
B3	–	400	–
B4	200	–	–
B5	–	–	Kd (chain copies: 2, label: biotin (BLI, dot blot, Western blot), FAM (flow cytometry), parallel G-quadruplex (CD), stem-loop predicted): 1300 pM
B6	200	–	–
